Results from patent US20250154494A1, “Microfluidic Co-Encapsulation Device and System and Methods for Identifying T-Cell Receptor Ligands” (JANSSEN BIOTECH, INC., priority 2021, published 2025).

Columns and labels:
TCR signaling [1] = experiment: Co-culture of SKW-3 cells expressing sleeping beauty transposon reporters with peptide-loaded B cells (GFP / HA reporter); format: cell-based; conditions: 1 μM peptide
Protocol: (§1) Sleeping beauty transposon reporter constructs were transfected together with transposases into T cells, 5 to 1 ratio, using the Neon transfection system following the manufacturer's protocol. The voltages used for Jurkat cells were 1350V/[…]/3 pulse, and for SKW-3 cells 1500V, […] and 1 pulse were used as settings. 48-72 hours after transfection, the cells were selected using […] Blasticidin for Jurkat and […] Blasticidin for SKW-3 cells.
(§2) Co-culture experiments were performed using round-bottom 96-well plates. P10-NBV Jurkat and SKW-3 reporter cells and B cells were seeded at a 1:1 ratio into each well. For peptide co-culture experiments, either cognate peptide or mismatched peptide is added to each well and incubated for 16 hours. For minigene-based co-culture experiments, minigene-transduced B cells harboring either the cognate of mismatch minigenes were used. Next day the cells are spun down and stained for Flow cytometry.

TCR signaling [2] = experiment: Co-culture of Jurkat reporter cells carrying synthetic promoters with peptide-loaded B cells (GFP / HA reporter); format: cell-based
Protocol: as §1, §2

B1: NBV promoter: synthetic TCR responsive promoter, SEQ ID NO:50 (nucleic acid)
DNA: GAATTCAAGTACCGTGCAGGAGGAAAAACTGTTTCATACAGAAGGCGTGGGCTATGCAAATCGAAACGCTGGAAACACTGAGTAATCAGATCAAGTCATGTTTCCATTTGAATGCAAATGGATACAGAAGGCGTGGAGGAAAAACTGTTTCCTGTTCCAATAGACGCCCTTTTTGAATGCAAATGGCGAGCTCATGGGTTTCTCCACCAAGGTGACGAGTGGAAAATCTGACTCAGAATTATCCCTTGTTATGCAAATCGCCCAAAGAGGAAAATTTGTTTCATAGAACATACTGTCTCAAATAGACGCCTCCTCGAGCGTTTCCCGGGGTACC
HA and GFP fluorescence intensities with 2 copies of promoter instead of 1 (TCR signaling [1]): doubled | GFP and HA reporter gene expression in sleeping beauty constructs (TCR signaling [2]; sleeping beauty constructs): high GFP and HA reporter gene expression | GFP and HA median intensity compared to NFAT promoters (TCR signaling [2]; sleeping beauty transposon reporters in Jurkat cells, 1 μM peptide): best signal | intensity of HA and GFP signals compared to 4×NFAT (TCR signaling [2]; sleeping beauty transposon system, different concentrations of cognate peptide): higher intensity of both HA and GFP signals
